Measurements as given in US20090035321A1, “Intercellular adhesion molecules and their binding ligands” (Boehringer Ingelheim Pharmaceuticals, Inc., published 2009).

Columns and labels:
Assay in all cases: 35S-HRV14 on COS cells
ICAM-1 E87/K = ICAM-1 E87/K (human, UniProt P05362)
Experimental: (§1) COS cells were seeded into 10 cm tissue culture plates such that they would be 50% confluent by 16-24 hrs. COS cells were then washed once with TBS and incubated for 4 hrs with 4 ml RPMI containing 10% Nu sera (Collaborative) 5 pg/ml chloroquine, 3 μg of mutant plasmid and 200 μg/ml DEAE-dextran sulfate. Cells were then washed with 10% DMSO/PBS followed by PBS and cultured 16 hrs in culture media. Culture media was replaced with fresh media and at 48 hrs post transfection (OS cells were suspended by trypsin/EDTA (Gibco) treatment and divided into 2, 10 cm plates as well as 24 well tissue culture plates for HRV binding. At 72 hrs cells were harvested from 10 cm plates with 5 mM EDTA/HBSS and processed for adhesion to LFA-1 coated plastic and immunofluorescence.
(§2) Binding occurred in 1 hr at 35° C. in a 5% CO₂ atmosphere with horizontal rotation (100 rpm). Unbound [³⁵S] HRV14 was aspirated, COS cells were gently washed with 150 ml of HRV buffer and then solubilized with 1% SDS in PBS for scintillation counting.
(§3) In Table 25, the notation for the mutations uses the one-letter code for the wild-type sequence followed by a slash and the one-letter code for the corresponding mutant sequence. The position of the first amino acid within the sequence is indicated. Wild type residues precede the slash followed by the residues they were substituted for in the mutant. COS cells expressing ICAM-1 mutants were tested for adherence to LFA-1 coated plastic and for binding 35S met-labeled HRV14. […] Binding is presented as mean and standard error (SE) for multiple experiments (n). […] The specific linear fluorescence intensity (SLFI) of CL203 for each mutant is normalized to that of wild type CL203 SLFI (% WT) as discussed above. The SLFI of RR1/1, R6.5 and LB-2 SLFI is normalized to the CL203 SLFI of the mutant (% CL203) as described above.

ICAM-1 D229QR/HLE = ICAM-1 D229QR/HLE (human, UniProt P05362)
Experimental: as §1, §2, §3

ICAM-1 N240DS/KNA = ICAM-1 N240DS/KNA (human, UniProt P05362)
Experimental: as §1, §2, §3

ICAM-1 R13/Q = ICAM-1 R13/Q (human, UniProt P05362)
Experimental: as §1, §2, §3

ICAM-1 Q1T/KA = ICAM-1 Q1T/KA (human, UniProt P05362)
Experimental: as §1, §2, §3

ICAM-1 Q1/K = ICAM-1 Q1/K (human, UniProt P05362)
Experimental: as §1, §2, §3

ICAM-1 S61/I = ICAM-1 S61/I (human, UniProt P05362)
Experimental: as §1, §2, §3

ICAM-1 D71GQS/NGEL = ICAM-1 D71GQS/NGEL (human, UniProt P05362)
Experimental: as §1, §2, §3

ICAM-1 E90/Q = ICAM-1 E90/Q (human, UniProt P05362)
Experimental: as §1, §2, §3

ICAM-1 Q73/H = ICAM-1 Q73/H (human, UniProt P05362)
Experimental: as §1, §2, §3

ICAM-1 N175TSA/QTLG = ICAM-1 N175TSA/QTLG (human, UniProt P05362)
Experimental: as §1, §2, §3

ICAM-1 A178/G = ICAM-1 A178/G (human, UniProt P05362)
Experimental: as §1, §2, §3

ICAM-1 N68/K = ICAM-1 N68/K (human, UniProt P05362)
Experimental: as §1, §2, §3

ICAM-1 Y52/F = ICAM-1 Y52/F (human, UniProt P05362)
Experimental: as §1, §2, §3

ICAM-1 R13G/EA = ICAM-1 R13G/EA (human, UniProt P05362)
Experimental: as §1, §2, §3

ICAM-1 D71/E = ICAM-1 D71/E (human, UniProt P05362)
Experimental: as §1, §2, §3

ICAM-1 Q58EDS/AKDI = ICAM-1 Q58EDS/AKDI (human, UniProt P05362)
Experimental: as §1, §2, §3

ICAM-1 Q1/E = ICAM-1 Q1/E (human, UniProt P05362)
Experimental: as §1, §2, §3

ICAM-1 S3VS/AGL = ICAM-1 S3VS/AGL (human, UniProt P05362)
Experimental: as §1, §2, §3

ICAM-1 G15/SA = ICAM-1 G15/SA (human, UniProt P05362)
Experimental: as §1, §2, §3

ICAM-1 K77T/ES = ICAM-1 K77T/ES (human, UniProt P05362)
Experimental: as §1, §2, §3

ICAM-1 K50V/EL = ICAM-1 K50V/EL (human, UniProt P05362)
Experimental: as §1, §2, §3

ICAM-1 E59/K = ICAM-1 E59/K (human, UniProt P05362)
Experimental: as §1, §2, §3

ICAM-1 G101K/AN = ICAM-1 G101K/AN (human, UniProt P05362)
Experimental: as §1, §2, §3

ICAM-1 D203TQ/TAD = ICAM-1 D203TQ/TAD (human, UniProt P05362)
Experimental: as §1, §2, §3

ICAM-1 Q62PM/API = ICAM-1 Q62PM/API (human, UniProt P05362)
Experimental: as §1, §2, §3

ICAM-1 R49KV/EKL = ICAM-1 R49KV/EKL (human, UniProt P05362)
Experimental: as §1, §2, §3

ICAM-1 D60S/KL = ICAM-1 D60S/KL (human, UniProt P05362)
Experimental: as §1, §2, §3

ICAM-1 Y83/S = ICAM-1 Y83/S (human, UniProt P05362)
Experimental: as §1, §2, §3

B1: human rhinovirus 14 (HRV14) (other)
chain: GAQVSTQKSGSHENQNILTNGSNQTFTVINYYKDAASTSSAGQSLSMDPSKFTEPVKDLMLKGAPALNSPNVEACGYSDRVQQITLGNSTITTQEAANAVVCYAEWPEYLPDVDASDVNKTSKPDTSVCRFYTLDSKTWTTGSKGWCWKLPDALKDMGVFGQNMFFHSLGRSGYTVHVQCNATKFHSGCLLVVVIPEHQLASHEGGNVSVKYTFTHPGERGIDLSSANEVGGPVKDVIYNMNGTLLGNLLIFPHQFINLRTNNTATIVIPYINSVPIDSMTRHNNVSLMVIPIAPLTVPTGATPSLPITVTIAPMCTEFSGIRSKSIVPQGLPTTTLPGSGQFLTTDDRQSPSALPNYEPTPRIHIPGKVHNLLEIIQVDTLIPMNNTHTKDEVNSYLIPLNANRQNEQVFGTNLFIGDGVFKTTLLGEIVQYYTHWSGSLRFSLMYTGPALSSAKLILAYTPPGARGPQDRREAMLGTHVVWDIGLQSTIVMTIPWTSGVQFRYTDPDTYTSAGFLSCWYQTSLILPPETTGQVYLLSFISACPDFKLRLMKDTQTISQTVALTEGLGDELEEVIVEKTKQTVASISSGPKHTQKVPILTANETGATMPVLPSDSIETRTTYMHFNGSETDVECFLGRAACVHVTEIQNKDATGIDNHREAKLFNDWKINLSSLVQLRKKLELFTYVRFDSEYTILATASQPDSANYSSNLVVQAMYVPPGAPNPKEWDDYTWQSASNPSVFFKVGDTSRFSVPYVGLASAYNCFYDGYSHDDAETQYGITVLNHMGSMAFRIVNEHDEHKTLVKIRVYHRAKHVEAWIPRAPRALPYTSIGRTNYPKNTEPVIKKRKGDIKSY
modifications: [35S]-Met labeled
B1 was tested, and the “HRV Binding %” value (ICAM-1 E87/K) was 27 % of wild type, the “HRV Binding %” value (ICAM-1 D229QR/HLE) was 106 % of wild type and the “HRV Binding %” value (ICAM-1 N240DS/KNA) was 82 % of wild type. For the same binder, the “HRV Binding %” value (ICAM-1 R13/Q) was 60 % of wild type, the “HRV Binding %” value (ICAM-1 Q1T/KA) was 11 % of wild type and the “HRV Binding %” value (ICAM-1 Q1/K) was 78 % of wild type. For the same binder, the “HRV Binding %” value (ICAM-1 S61/I) was 111 % of wild type, the “HRV Binding %” value (ICAM-1 D71GQS/NGEL) was 21 % of wild type and the “HRV Binding %” value (ICAM-1 E90/Q) was 157 % of wild type. For the same binder, the “HRV Binding %” value (ICAM-1 Q73/H) was 117 % of wild type, the “HRV Binding %” value (ICAM-1 N175TSA/QTLG) was 40 % of wild type and the “HRV Binding %” value (ICAM-1 A178/G) was 102 % of wild type. The “HRV Binding %” value (ICAM-1 N68/K) was 137 % of wild type, the “HRV Binding %” value (ICAM-1 Y52/F) was 174 % of wild type and the “HRV Binding %” value (ICAM-1 R13G/EA) was 3 % of wild type. The “HRV Binding %” value (ICAM-1 D71/E) was 140 % of wild type, the “HRV Binding %” value (ICAM-1 Q58EDS/AKDI) was 0 % of wild type and the “HRV Binding %” value (ICAM-1 Q1/E) was 149 % of wild type. For the same binder, the “HRV Binding %” value (ICAM-1 S3VS/AGL) was 61 % of wild type, the “HRV Binding %” value (ICAM-1 G15/SA) was 164 % of wild type and the “HRV Binding %” value (ICAM-1 K77T/ES) was 42 % of wild type. The “HRV Binding %” value (ICAM-1 K50V/EL) was 10 % of wild type, the “HRV Binding %” value (ICAM-1 E59/K) was 105 % of wild type and the “HRV Binding %” value (ICAM-1 G101K/AN) was 140 % of wild type. The “HRV Binding %” value (ICAM-1 D203TQ/TAD) was 111 % of wild type, the “HRV Binding %” value (ICAM-1 Q62PM/API) was 182 % of wild type and the “HRV Binding %” value (ICAM-1 R49KV/EKL) was 49 % of wild type. For the same binder, the “HRV Binding %” value (ICAM-1 D60S/KL) was 1 % of wild type and the “HRV Binding %” value (ICAM-1 Y83/S) was 86 % of wild type.
